Measured values from US20190071500A1 (ORIONIS BIOSCIENCES, published 2019).

Molecular target: T1, His6-tagged extracellular domain of human CD8A (human, UniProt P01732 22-182)
T1 construct: extracellular domain; coated on the solid phase for panning and for the ELISA screening; also called Hiss-tagged extracellular domain of human CD8A; not shown: His tag
Test: ELISA, crude periplasmic extracts on coated His-tagged extracellular domain of human CD8A
Description: Three consecutive rounds of panning of a VHH library were performed on solid-phase coated Hiss-tagged extracellular domain of human CD8A (200 μg/ml, 20 μg/well). The enrichment for antigen-specific phages was assessed after each round of panning by comparing the number of phagemid particles eluted from antigen-coated wells with the number of phagemid particles eluted from only-blocked wells (negative control wells). […] 285 colonies (95 & 190 from 2nd and 3rd rounds, respectively) were randomly selected and analyzed by ELISA for the presence of antigen-specific VHHs in their periplasmic extracts (ELISA using crude periplasmic extracts including soluble VHHs). The antigen used for the ELISA screening was the same as the one used for immunization and panning. Out of these 285 colonies, 64 colonies (3 and 61 from 2nd and 3rd rounds of panning, respectively) scored positive in this assay. Based on sequence data, the 64 positive colonies represented 16 different VHHs. The 16 different VHHs belong to 6 different CDR3 groups. Table 2 below provides a description of 3 clones representing the 3 different anti-human CD8A VHH genes. E. coli TG1 harboring recombinant phagemid pMECS containing anti-human CD8A VHH sequences was generated and stored at −80° C. The vector pMECS codes for ampicillin resistance.

T1 sequence (P01732 22-182): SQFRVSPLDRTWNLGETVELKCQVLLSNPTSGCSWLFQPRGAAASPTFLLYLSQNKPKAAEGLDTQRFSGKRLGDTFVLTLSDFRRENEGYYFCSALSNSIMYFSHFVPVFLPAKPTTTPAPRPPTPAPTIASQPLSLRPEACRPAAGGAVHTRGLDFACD

| binding result | Binder |
| --- | --- |
| binds | R2HCD26 (VHH, not shown: His tag (His-tagged VHHs); the vectors described carry His6 at the C-terminus; exact junction of the tested form not sta) VHH: QVQLQESGGGLVQAGGSLRLSCAASGFTFDDYAIGWFRQAPGKEREGVSCIRVSDGSTYYADPVKGRFTISSDNAKNTVYLQMNSLKPEDAAVYYCAAGSLYTCVQSIVVVPARPYYDMDYWGKGTQVTVSS |
| binds | R3HCD27 (VHH, not shown: His tag (His-tagged VHHs); the vectors described carry His6 at the C-terminus; exact junction of the tested form not sta) VHH: QVQLQESGGGSVQPGGSLRLSCAASGFTFDDYAMSWVRQVPGKGLEWVSTINWNGGSAEYAEPVKGRFTISRDNAKNTVYLQMNSLKLEDTAVYYCAKDADLVWYNLSTGQGTQVTVSS |
| binds | R3HCD129 (VHH, not shown: His tag (His-tagged VHHs); the vectors described carry His6 at the C-terminus; exact junction of the tested form not sta) VHH: QVQLQESGGGLVQPGGSLRLSCAASGFTFDDYAMSWVRQVPGKGLEWVSTINWNGGSAEYAEPVKGRFTISRDNAKNTVYLQMNSLKLEDTAVYYCAKDADLVWYNLRTGQGTQVTVSS |
